The results in this text go back to the RNAGym collection of RNA variant scans (doi:10.7554/elife.80360).

To fix the notation:
B1: Twister Ribozyme (parent)
chain: AACACUGCCAAUGCCGGUCCCAAGCCCGGAUAAAAGUGGAGGGGGCGG

In the data set the parent is B1. The data set is described as follows: self-cleavage, relative activity (ratio to wild type); higher = more cleavage; co-transcriptional.
With A23G A34U, the self-cleavage worked out at 0.15. For A23G G38A, the self-cleavage stood at 0.194. The figure for A2U G28C is 0.533. For C19G G24U, the self-cleavage is 0.0534. The result for A2U C46A reads 0.513; that for U31C A32G, 0.997; that for A32U G36A, 0.701. In the case of C5U C26U, the self-cleavage was determined as 0.0759.

With U6C G36A, the self-cleavage was 0.136. The result for C25A G29U reads 0.24; that for U31C G36A, 0.725. The result for A4U G41U reads 0.0632; that for G44A G45A, 0.906; that for A34C G45U, 0.167.

With C25G G44U, the self-cleavage was found to be 0.197.

C25A C46U: the self-cleavage is 0.104. The result for C5U A30C reads 0.542; that for G13A U37A, 0.209; that for A11G A23U, 0.614.

In the case of C14U G39U, the self-cleavage worked out at 0.28. The figure for U37C G43C is 0.102; for G13C C46A it is 0.232; for C19G G43A it is 0.242. On to G28C G42C, for which the self-cleavage was found to be 0.296.

Turning to G28C G42A, the self-cleavage amounted to 0.185. The figure for C26U G36C is 0.129; for G28C G44C it is 0.666; for A2U U31C it is 0.652. U6G G42C: the self-cleavage was 0.156. The figure for U31A G41C is 0.266; for C3G A34U it is 0.203; for C25A A30G it is 0.233.

A11C G48C: the self-cleavage is 1.05. The result for G36U G42U reads 0.103; that for G17U A35G, 0.1; that for G17U A35C, 0.305. The figure for C3U G28U is 0.325; for C9U G41A it is 0.121. Consider C19U G36A, for which the self-cleavage was determined as 0.167. The result for C19U G36U reads 0.127; that for A10U U18A, 0.546. The result for A4U G44A reads 0.248. The result for A4U G44C reads 0.105; that for A22U A34G, 0.535. In the case of G29A G41A, the self-cleavage is 0.452. The figure for G28U A40G is 0.155; for G28A C46U it is 0.918; for A32G G48U it is 1.1. The result for C5G G24U reads 0.112; that for G13A A33U, 1.01. The result for U12A A34U reads 0.984; that for C9A A10G, 0.648; that for A34G G48U, 0.876. For the variant G39C C46G, the self-cleavage turned out to be 0.126. The result for G39C C46A reads 0.13; that for A32G A35U, 0.986; that for C19U A33U, 0.86. The figure for A34G A35G is 0.526; for U12C U37G it is 0.72; for A23C A35G it is 0.0714. The figure for C3A G38A is 0.268; for U6C C27A it is 0.0694.

As to C8U U37C, the self-cleavage came out at 0.284.

For the variant G17C G24A, the self-cleavage worked out at 0.0848. The figure for C9A C19G is 0.0837; for U37G G47U it is 0.724; for G7U A34C it is 0.0467. Regarding C3G A40G, the self-cleavage was 0.111. The figure for A4U G43U is 0.0514; for C20G A22C it is 0.147; for U12C G41U it is 0.614.

As for G24C G45A, the self-cleavage turned out to be 0.0924.

For A1U G36C, the self-cleavage came out at 0.0449.

Consider A1U G36U, for which the self-cleavage came to 0.0701.

Regarding C8U G29C, the self-cleavage worked out at 0.117.

With C20G G48C, the self-cleavage worked out at 0.157. The result for G41A G44C reads 0.205. The figure for G41A G44A is 0.483.

For the variant C9G G13U, the self-cleavage came out at 0.933. The result for A35C G38A reads 0.9; that for A35C G38U, 0.881; that for C3G G28A, 0.239. The figure for C3A G42C is 0.0718. On to G24C G42U, for which the self-cleavage was found to be 0.0759.

Consider A2C G44U, for which the self-cleavage came to 0.0787. The result for C27U G44U reads 0.774; that for C15U U31C, 0.923; that for A30U U37C, 0.72. The figure for G42A C46U is 0.349; for C27U U37C it is 0.179. The result for C14U G29U reads 1.09; that for C8U G44A, 0.658; that for C26U G47C, 0.181.

On to A1U U37C, for which the self-cleavage stood at 0.0822.

Consider A1U A4C, for which the self-cleavage is 0.0725.

For C8U U31G, the self-cleavage was 0.603. For the variant G24C G41A, the self-cleavage turned out to be 0.109. The figure for C3U C14A is 0.351. As for U6G G38U, the self-cleavage came out at 0.223. The result for A1U reads 0.0597. Regarding G7A A34U, the self-cleavage was determined as 0.154. The figure for C27A G36A is 0.121; for A1C G43A it is 0.135.

Take C19U G29U: the self-cleavage is 0.836. C21A G28A: the self-cleavage amounted to 0.0792. The figure for G17A C25U is 0.255. Take A40U G48A: the self-cleavage stood at 0.159. The result for A4U U6C reads 0.0522; that for U37A G45A, 0.835; that for A10G G28C, 1.05. The result for C9U U12A reads 0.794; that for C25G G29A, 0.564; that for G13A G16A, 0.352. The figure for A1U C20U is 0.0599; for G28C A40C it is 0.179; for U6C C19U it is 0.131.

For the variant C26A G47U, the self-cleavage came to 0.144. The figure for C20G G43U is 0.0978; for C8A C19U it is 0.107.

In the case of C8G G17U, the self-cleavage came to 0.0532.

Turning to G17U A22C, the self-cleavage is 0.406. The result for G45U G47U reads 0.386; that for A22C G47A, 0.909. The figure for G38C G44C is 0.853.

G42U C46G: the self-cleavage turned out to be 0.309. The result for A4G U12C reads 0.811.

With C9G A34U, the self-cleavage is 0.47. The figure for G7U A22G is 0.0616; for G7U A22C it is 0.11. The figure for C5A A33G is 0.472. The figure for U12A G28A is 0.912. A1C G16A: the self-cleavage turned out to be 0.209. The result for C25G G36C reads 0.0714; that for C8U A11G, 0.551.

A4C G48A: the self-cleavage came to 0.134. As to A4C U31A, the self-cleavage is 0.182.

As for G17U G43C, the self-cleavage was determined as 0.0878. The figure for A40U G42A is 0.136; for A11C A40C it is 0.14. The figure for A30U G43U is 0.558. The result for U12G C20A reads 0.314; that for G28U G36U, 0.136; that for U12C A32G, 1.24. With A23C U37A, the self-cleavage amounted to 0.088.

As for A11C A30G, the self-cleavage amounted to 0.739. The figure for C20A G43C is 0.0847; for U18A G38U it is 0.144. As for A10C G16A, the self-cleavage was found to be 0.726.

For A10C G16C, the self-cleavage came out at 0.526. Turning to C27G G41A, the self-cleavage is 0.0929. For the variant A11U A30U, the self-cleavage stood at 1.01. The figure for G7C C25A is 0.0795. The figure for U12G is 0.946. Turning to U12A, the self-cleavage is 1.11.

In the case of U6C A11U, the self-cleavage was 0.673. As to C15G G44C, the self-cleavage was determined as 0.0763. The result for C14A G47C reads 0.44; that for C20U G36C, 0.135; that for C14G G16U, 0.138. Consider A35C C46G, for which the self-cleavage worked out at 0.828. For the variant A11U G47U, the self-cleavage came out at 0.98. The result for G39U G48C reads 0.265; that for A23C G36U, 0.0946; that for A23C G45C, 0.125.

Consider A11C, for which the self-cleavage came out at 0.906.

Turning to U6C G7C, the self-cleavage was 0.0439. The result for G17C U18C reads 0.1.
